Measured values from patent US20100204100A1, “BIOLOGICAL AGENTS ACTIVE IN CENTRAL NERVOUS SYSTEM” (THE JOHNS HOPKINS UNIVERISTY, priority 2007, published 2010).
Entries after “also recorded” stand apart in the source; their conditions may differ.

System: cultured spinal neurons
Test: In vitro delivery of Tat fusion peptide in cultured spinal neurons (Western blot, anti-His antibody)
Format: cell-based
Conditions: 10 μM peptide, 30 min incubation, cultured mouse spinal neurons
Protocol: In Vitro Delivery of Tat Fusion Peptide in Cultured Spinal Neurons. The intracellular delivery of Tat fusion peptide was assessed by Western blot analysis 30 min after application of 10 μM Tat-PSD-95 PDZ2 to cultured spinal neurons. The same dose of PSD-95 PDZ2 without Tat served as a control. Spinal cord neuronal cultures were prepared as previously described (O'Brien, et al., 1997) with minor modification. In brief, embryonic day 14 mouse spinal cord was digested for 45 min at 34° C. Cells were gently dissociated with a 5-ml pipette, filtered through a 70-μm filter, and centrifuged through a solution of 1% soybean trypsin inhibitor and 1% bovine serum albumin at 80×g for 10 min. High-density cultures were plated at 2 million cells/60-mm dish. Cell lysates from high-density cultures were solubilized in 1% Triton X-100/0.2% sodium dodecyl sulfate (SDS) and subjected to SDS-polyacrylamide gel electrophoresis (SDS-PAGE). Proteins were immunoblotted with monoclonal anti-His antibody (Sigma) and visualized with enhanced chemiluminescence (Amersham Biosciences, Piscataway, N.J.).

B1: Tat-PSD-95 PDZ2: His-tagged fusion peptide: HIV Tat minimal transduction domain (residues 47-57) fused to the second PDZ domain of PSD-95 (protein)
chain: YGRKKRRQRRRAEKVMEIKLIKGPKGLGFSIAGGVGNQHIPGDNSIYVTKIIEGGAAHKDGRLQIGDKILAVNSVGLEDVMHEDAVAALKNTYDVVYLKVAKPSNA
For B1, the “His-peptide detected in neurons (intracellular delivery), Western blotting with anti-His antibody” value was “detected only; also recorded: only detected”.
